Measured values published in patent US20260274985A1 (MYTHIC THERAPEUTICS, published 2026).
Changes are numbered by the printed parent chain.

T1: Human TROP2 Protein, His Tag (Acro Biosystems) (human, UniProt P09758 27-274)
T1 construct: Bought antigen used at 50 nM in the Octet screen; also called TACSTD2; not shown: His tag
T1 sequence (looked up): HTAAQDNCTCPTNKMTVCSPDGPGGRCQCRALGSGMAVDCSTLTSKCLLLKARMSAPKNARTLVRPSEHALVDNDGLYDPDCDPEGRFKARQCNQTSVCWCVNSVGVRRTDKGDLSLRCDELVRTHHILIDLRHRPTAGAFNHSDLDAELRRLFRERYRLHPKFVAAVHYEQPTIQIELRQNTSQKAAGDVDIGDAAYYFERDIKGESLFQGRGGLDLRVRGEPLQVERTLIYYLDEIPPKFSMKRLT

B1: MYT11720 (antibody, V domains shown)
VH: QVQLQESGPGLVKPSETLSLTCTVSGGSISSYGVHWIRQPPGKGLEWIGVIWTSHVTDYNSALMGRVTISVDTSKNQFSLKLSSVTAADTAVYYCARDGDYDRYTMDYWGQGTLVTVSS
VL: DIVMTQSPDSLAVSLGERATINCRASKSVSTSGYSYMHWYQQKPGQPPKLLIYLASNLESGVPDRFSGSGSGTDFTLTISSLQAEDVAVYYCQHSRELPYTFGQGTKLEIK
notes: hu7E6SVG variant, His at HCV position 55 (H2 06); screened as IgG in Expi293 supernatant
B2: MYT11721 (antibody, V domains shown)
VH: B1 VH with H55G, V56H
VL: B1 VL
notes: hu7E6SVG variant, His at HCV position 56 (H2 07); screened as IgG in Expi293 supernatant
B3: MYT11722 (antibody, V domains shown)
VH: B1 VH with H55G, T57H
VL: B1 VL
notes: hu7E6SVG variant, His at HCV position 57 (H2 08); screened as IgG in Expi293 supernatant
B4: MYT11723 (antibody, V domains shown)
VH: B1 VH with H55G, D58H
VL: B1 VL
notes: hu7E6SVG variant, His at HCV position 58 (H2 09); screened as IgG in Expi293 supernatant
B5: MYT11724 (antibody, V domains shown)
VH: B1 VH with H55G, Y59H
VL: B1 VL
B6: MYT11725 (antibody, V domains shown)
VH: B1 VH with H55G, N60H
VL: B1 VL
notes: hu7E6SVG variant, His at HCV position 60 (H2 11); screened as IgG in Expi293 supernatant
B7: MYT11726 (antibody, V domains shown)
VH: B1 VH with H55G, S61H
VL: B1 VL
notes: hu7E6SVG variant, His at HCV position 61 (H2 12); screened as IgG in Expi293 supernatant
B8: MYT11727 (antibody, V domains shown)
VH: B1 VH with H55G, A62H
VL: B1 VL
notes: hu7E6SVG variant, His at HCV position 62 (H2 13); screened as IgG in Expi293 supernatant
B9: MYT11728 (antibody, V domains shown)
VH: B1 VH with H55G, L63H
VL: B1 VL
notes: hu7E6SVG variant, His at HCV position 63 (H2 14); screened as IgG in Expi293 supernatant
B10: MYT11729 (antibody, V domains shown)
VH: B1 VH with H55G, M64H
VL: B1 VL
notes: hu7E6SVG variant, His at HCV position 64 (H2 15); screened as IgG in Expi293 supernatant
B11: MYT11730 (antibody, V domains shown)
VH: B1 VH with H55G, G65H
VL: B1 VL
notes: hu7E6SVG variant, His at HCV position 65 (H2 16); screened as IgG in Expi293 supernatant
B12: MYT11731 (antibody, V domains shown)
VH: B1 VH with H55G, A96H
VL: B1 VL
notes: hu7E6SVG variant, His at HCV position 96 (H3 01); screened as IgG in Expi293 supernatant
B13: MYT11732 (antibody, V domains shown)
VH: B1 VH with H55G, R97H
VL: B1 VL
notes: hu7E6SVG variant, His at HCV position 97 (H3 02); screened as IgG in Expi293 supernatant
B14: MYT11733 (antibody, V domains shown)
VH: B1 VH with H55G, D98H
VL: B1 VL
notes: hu7E6SVG variant, His at HCV position 98 (H3 03); screened as IgG in Expi293 supernatant
B15: MYT11734 (antibody, V domains shown)
VH: B1 VH with H55G, G99H
VL: B1 VL
notes: hu7E6SVG variant, His at HCV position 99 (H3 04); screened as IgG in Expi293 supernatant
B16: MYT11735 (antibody, V domains shown)
VH: B1 VH with H55G, D100H
VL: B1 VL
notes: hu7E6SVG variant, His at HCV position 100 (H3 05); screened as IgG in Expi293 supernatant
B17: MYT11736 (antibody, V domains shown)
VH: B1 VH with H55G, Y101H
VL: B1 VL
notes: hu7E6SVG variant, His at HCV position 101 (H3 06); screened as IgG in Expi293 supernatant

Each binder was assayed against T1, Human TROP2 Protein, His Tag (Acro …) (assay: BLI (Octet) [1/2]).
Description: After allowing for four days of protein expression, cell culture supernatants were collected, quantified by SDS-PAGE analysis (DNS), and the pH dependence of the variant was evaluated using biolayer interferometry (BLI) on an Octet RED 96e instrument. Briefly, cell culture supernatants were diluted based on qualitative expression level of the variant determined by visual examination of SDS-PAGE gels, 5 μL of cell culture supernatant was diluted into 195 μL of 1×PBST, pH 7.4 for high expressors, 25 μL of cell culture supernatant was diluted into 175 μL of 1×PBST, pH 7.4 for medium expressors and 100 μL of cell culture supernatant was diluted into 100 μL of 1×PBST, pH 7.4 for low expressors for loading onto the sensor tips. The resulting diluted supernatants were then captured on an anti-human Fc sensor (Forte Bio). A baseline was established using 1×PBST (50 mM Potassium Phosphate Buffer+150 mM NaCl+0.05% Tween 20) pH 7.4, and the sensor was associated with 50 nM of TROP2 (Human TROP2 Protein, His Tag, Acro Biosystems) in 1×PBST pH 7.4 for 120 sec to generate an association curve. In the dissociation phase, the antibody-antigen complex on the sensor was exposed to 1×PBST pH 7.4 or pH 5.4, for 300 sec. Association and dissociation phase curves were examined for the starting ABPC antibody (with no substitutions) and each corresponding antibody variant at pH 5.4 and pH 7.4 to inform on two criteria: a) enhanced dissociation (i.e., higher koff values) at pH 5.4 due to histidine or alanine substitution compared to the starting ABPC, (with no substitutions), and b) reduced dissociation at pH 7.4 (i.e., lower koff values) compared to pH 5.4 in the antibody variant itself and with the starting ABPC (with no substitutions). […] It was also noted that while some mutations obliterated TROP2 binding, others were tolerated with little or n change in TROP2 binding kinetics.
B1: binds. B2: binds. B3: binds. B4: no binding (tested: 50 nM). B5: binds. B6: binds. B7: binds. B8: binds. B9: binds. B10: binds. B11: binds. B12: no binding (tested: 50 nM). B13: binds. B14: no binding (tested: 50 nM). B15: no binding (tested: 50 nM). B16: binds. B17: no binding (tested: 50 nM).
